In paper PMC11480844 (2024):

B1: H2-Kb / Ed16-1 (parent complex)
chain 1: GEQVEQRPPHLSVREGDSAVITCTYTDPNSYYFFWYKQEPGASLQLLMKVFSSTEINEGQGFTVLLNKKDKRLSLNLTAAHPGDSAAYFCAVSGSNNRIFFGDGTQLVVKP
chain 2: EAAVTQSPRSKVAVTGGKVTLSCHQTNNHDYMYWYRQDTGHGLRLIHYSYVADSTEKGDIPDGYKASRPSQENFSLILELASLSQTAVYFCASRTGTDYTFGSGTRLLVI
chain 3: not shown
chain 4: IQKTPQIQVYSRHPPENGKPNILNCYVTQFHPPHIEIQMLKNGKKIPKVEMSDMSFSKDWSFYILAHTEFTPTETDTYACRVKHDSMAEPKTVYWDRDM
chain 5: SIINFEKL

Variants of: B1
Test: % of reporter cells activated (NFAT-GFP), raw; note: test concentration or dose not given here

ratio to parent	Variant
0.124	chain 5 N4A
0.0165	chain 5 N4I
0.0188	chain 5 N4P
0.492	chain 5 N4S
0.00138	chain 5 N4V
0.0025	chain 5 N4W
0.617	chain 5 N4L
0.0302	chain 5 N4F
0.000537	chain 5 N4Q
0.0307	chain 5 N4T
0.000769	chain 5 N4M
0.0372	chain 5 N4D
0.00253	chain 5 N4C
0.211	chain 5 N4K
0.0158	chain 5 N4H
0.19	chain 5 N4R
0.00277	chain 5 N4E
0.0463	chain 5 N4G
0.021	chain 5 N4Y
0.0356	chain 5 E6T
0.00877	chain 5 E6R
0.608	chain 5 E6K
0.153	chain 5 E6F
0.187	chain 5 E6Q
0.371	chain 5 E6D

ratio to parent	Variant
0.0059	chain 5 E6I
0.187	chain 5 E6G
0.106	chain 5 E6Y
0.00707	chain 5 E6V
0.219	chain 5 E6M
0.0535	chain 5 E6N
0.00912	chain 5 E6C
0.0174	chain 5 E6A
0.117	chain 5 E6W
0.0978	chain 5 E6H
0.0513	chain 5 E6S
0.00132	chain 5 E6P
0.0059	chain 5 E6L
0.864	chain 5 I3E
0.172	chain 5 I3D
0.777	chain 5 I3C
0.755	chain 5 I3N
0.744	chain 5 I3W
1.06	chain 5 I3V
0.473	chain 5 I3G
0.605	chain 5 I3Q
0.716	chain 5 I3T
0.865	chain 5 I3P
0.33	chain 5 I3H
0.592	chain 5 I3S

ratio to parent	Variant
0.883	chain 5 I3A
0.301	chain 5 I3R
0.521	chain 5 I3K
0.0814	chain 5 I3F
0.00742	chain 5 I3Y
0.889	chain 5 I3L
0.842	chain 5 I3M
0.771	chain 5 K7V
0.912	chain 5 K7S
0.632	chain 5 K7F
0.781	chain 5 K7C
0.979	chain 5 K7D
1.09	chain 5 K7R
1.04	chain 5 K7Y
0.903	chain 5 K7N
1.17	chain 5 K7P
1.01	chain 5 K7Q
0.91	chain 5 K7A
0.924	chain 5 K7G
0.905	chain 5 K7T
0.848	chain 5 K7M
0.559	chain 5 K7E
0.776	chain 5 K7W
1.18	chain 5 K7H
0.847	chain 5 K7I

ratio to parent	Variant
0.832	chain 5 K7L
1.06	chain 5 I2M
0.849	chain 5 I2F
1.04	chain 5 I2G
0.976	chain 5 I2E
1.04	chain 5 I2C
0.651	chain 5 I2R
0.94	chain 5 I2S
0.607	chain 5 I2N
1.08	chain 5 I2L
0.926	chain 5 I2T
0.912	chain 5 I2D
0.597	chain 5 I2Y
0.743	chain 5 I2K
0.713	chain 5 I2Q
0.627	chain 5 I2H
1.1	chain 5 I2V
1.01	chain 5 I2A
0.749	chain 5 I2W
0.794	chain 5 I2P
0.742	chain 5 F5E
0.818	chain 5 F5R
0.943	chain 5 F5C
0.725	chain 5 F5N
0.823	chain 5 F5D

ratio to parent	Variant
0.803	chain 5 F5K
0.917	chain 5 F5S
0.848	chain 5 F5V
0.181	chain 5 F5P
0.97	chain 5 F5Q
1.07	chain 5 F5Y
0.96	chain 5 F5I
0.516	chain 5 F5G
0.943	chain 5 F5H
0.699	chain 5 F5W
0.976	chain 5 F5A
1.02	chain 5 F5L
0.843	chain 5 F5T
1.08	chain 5 F5M
0.00139	chain 5 S1I
0.199	chain 5 S1H
0.66	chain 5 S1T
0.0909	chain 5 S1R
0.0551	chain 5 S1C
0.0013	chain 5 S1F
0.0447	chain 5 S1W
0.0746	chain 5 S1E
0.038	chain 5 S1K
0.00107	chain 5 S1L
0.0527	chain 5 S1Q

ratio to parent	Variant
0.00277	chain 5 S1P
0.0326	chain 5 S1N
0.48	chain 5 S1A
0.0059	chain 5 S1M
0.521	chain 5 S1G
0.419	chain 5 S1Y
0.0177	chain 5 S1V
1.07	chain 5 L8P
1.01	chain 5 L8A
0.952	chain 5 L8F
0.861	chain 5 L8N
1.01	chain 5 L8H
0.85	chain 5 L8C
1.07	chain 5 L8Q
1	chain 5 L8Y
1.03	chain 5 L8M
1.02	chain 5 L8I
0.935	chain 5 L8R
0.883	chain 5 L8E
0.83	chain 5 L8V
0.941	chain 5 L8S
0.834	chain 5 L8D
0.994	chain 5 L8G
0.968	chain 5 L8T
0.828	chain 5 L8W
